This passage reports binding score results from publication PMC11098746 (2024).

What all share (assay): AVEXIS screen signal:noise (double-corrected)
The target of assay [1] is T1, ADP279.
T1 chain: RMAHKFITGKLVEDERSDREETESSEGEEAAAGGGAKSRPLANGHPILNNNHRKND

The target of assay [2] is T2, ADP261.
T2 chain: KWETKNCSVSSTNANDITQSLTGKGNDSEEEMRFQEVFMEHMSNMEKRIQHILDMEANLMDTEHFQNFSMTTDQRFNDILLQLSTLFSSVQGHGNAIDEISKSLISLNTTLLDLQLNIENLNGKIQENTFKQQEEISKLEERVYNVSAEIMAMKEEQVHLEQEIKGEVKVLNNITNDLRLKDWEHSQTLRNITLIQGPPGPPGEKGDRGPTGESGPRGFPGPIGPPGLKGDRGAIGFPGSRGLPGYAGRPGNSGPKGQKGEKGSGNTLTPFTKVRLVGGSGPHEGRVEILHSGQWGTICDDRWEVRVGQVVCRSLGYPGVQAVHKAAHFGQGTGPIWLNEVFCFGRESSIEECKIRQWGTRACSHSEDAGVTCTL

The target in assay [3] is T3, ADP375.
T3 chain: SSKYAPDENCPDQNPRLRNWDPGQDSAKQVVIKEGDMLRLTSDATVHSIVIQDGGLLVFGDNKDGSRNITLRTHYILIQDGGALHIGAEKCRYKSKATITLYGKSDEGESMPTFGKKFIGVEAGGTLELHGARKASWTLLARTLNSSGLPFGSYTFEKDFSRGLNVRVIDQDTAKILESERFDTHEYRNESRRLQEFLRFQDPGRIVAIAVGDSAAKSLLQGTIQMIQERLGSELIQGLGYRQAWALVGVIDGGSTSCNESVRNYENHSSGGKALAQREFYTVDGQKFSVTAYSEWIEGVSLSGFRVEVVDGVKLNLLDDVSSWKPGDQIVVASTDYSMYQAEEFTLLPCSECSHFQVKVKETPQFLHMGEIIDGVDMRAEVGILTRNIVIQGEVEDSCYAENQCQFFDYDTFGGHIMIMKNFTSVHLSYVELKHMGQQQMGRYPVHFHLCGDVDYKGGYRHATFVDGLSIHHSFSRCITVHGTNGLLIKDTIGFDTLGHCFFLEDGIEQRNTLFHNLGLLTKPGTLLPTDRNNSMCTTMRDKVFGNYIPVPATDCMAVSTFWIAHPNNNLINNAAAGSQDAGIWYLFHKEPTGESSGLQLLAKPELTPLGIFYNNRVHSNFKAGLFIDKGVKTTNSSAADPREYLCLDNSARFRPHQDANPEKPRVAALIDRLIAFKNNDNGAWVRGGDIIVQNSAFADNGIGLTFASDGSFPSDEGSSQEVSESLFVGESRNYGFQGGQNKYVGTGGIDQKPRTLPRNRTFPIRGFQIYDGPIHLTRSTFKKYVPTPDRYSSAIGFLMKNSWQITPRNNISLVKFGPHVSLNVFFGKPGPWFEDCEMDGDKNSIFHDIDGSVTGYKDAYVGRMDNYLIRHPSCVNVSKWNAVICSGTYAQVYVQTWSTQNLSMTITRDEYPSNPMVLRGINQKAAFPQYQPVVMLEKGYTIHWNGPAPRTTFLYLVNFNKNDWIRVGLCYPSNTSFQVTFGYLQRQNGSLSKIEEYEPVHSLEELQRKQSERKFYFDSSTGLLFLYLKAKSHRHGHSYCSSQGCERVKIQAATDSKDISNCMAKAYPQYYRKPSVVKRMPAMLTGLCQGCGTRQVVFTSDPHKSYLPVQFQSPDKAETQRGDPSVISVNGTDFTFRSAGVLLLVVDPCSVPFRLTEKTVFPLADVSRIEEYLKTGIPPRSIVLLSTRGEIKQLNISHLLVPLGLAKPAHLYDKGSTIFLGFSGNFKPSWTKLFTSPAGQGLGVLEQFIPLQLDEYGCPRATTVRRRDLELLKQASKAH

The target of assay [4] is T4, ADP377.
T4 chain: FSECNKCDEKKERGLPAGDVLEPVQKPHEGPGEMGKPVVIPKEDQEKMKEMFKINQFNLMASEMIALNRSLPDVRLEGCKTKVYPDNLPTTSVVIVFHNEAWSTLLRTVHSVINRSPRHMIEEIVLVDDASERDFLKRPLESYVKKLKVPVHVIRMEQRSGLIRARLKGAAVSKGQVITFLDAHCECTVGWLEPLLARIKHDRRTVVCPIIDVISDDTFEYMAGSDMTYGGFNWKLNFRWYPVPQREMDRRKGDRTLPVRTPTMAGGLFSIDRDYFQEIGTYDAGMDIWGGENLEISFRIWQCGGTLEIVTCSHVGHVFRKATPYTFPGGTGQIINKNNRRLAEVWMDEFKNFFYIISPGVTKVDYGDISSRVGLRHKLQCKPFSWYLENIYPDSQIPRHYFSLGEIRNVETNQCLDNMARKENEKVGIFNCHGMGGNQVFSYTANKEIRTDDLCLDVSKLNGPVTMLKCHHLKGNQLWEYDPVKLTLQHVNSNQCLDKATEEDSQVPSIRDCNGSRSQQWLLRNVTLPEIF

In assay [5] the target is T5, ADP096.
T5 chain: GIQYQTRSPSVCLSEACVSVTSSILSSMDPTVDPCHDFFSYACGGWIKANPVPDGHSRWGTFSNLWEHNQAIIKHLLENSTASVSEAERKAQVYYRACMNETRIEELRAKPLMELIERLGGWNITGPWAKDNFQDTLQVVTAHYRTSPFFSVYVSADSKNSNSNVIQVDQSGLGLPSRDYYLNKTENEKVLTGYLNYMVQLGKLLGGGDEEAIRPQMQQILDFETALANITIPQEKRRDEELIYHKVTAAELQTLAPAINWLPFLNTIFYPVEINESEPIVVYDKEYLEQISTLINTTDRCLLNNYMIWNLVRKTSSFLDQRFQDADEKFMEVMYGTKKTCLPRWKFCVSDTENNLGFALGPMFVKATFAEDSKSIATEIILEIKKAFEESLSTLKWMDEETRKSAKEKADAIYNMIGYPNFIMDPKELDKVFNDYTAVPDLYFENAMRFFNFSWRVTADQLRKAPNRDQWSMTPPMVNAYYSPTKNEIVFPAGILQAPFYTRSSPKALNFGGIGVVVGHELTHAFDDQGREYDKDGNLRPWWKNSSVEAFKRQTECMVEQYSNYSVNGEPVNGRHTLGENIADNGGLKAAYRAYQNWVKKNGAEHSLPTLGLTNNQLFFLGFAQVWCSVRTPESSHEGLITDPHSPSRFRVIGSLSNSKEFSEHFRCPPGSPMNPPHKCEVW

B1: ADP237 (protein)
chain: TKKKVSVSEINFDSAVDDVQWCGNNHMTVLVKTVKGRLYRSSDGGKIWTNIAGNLADKENNKADPSSNHMNEMTTVDLIMVNSVNKNIVLIIGNQKNHYISEDSGETFRLLNYQNKINFWQFHSTKTHWALVSSWTEACYSNDDNSGECMQTLSLTKDLGRTFQLIDIYVVQFNWGDKESHLEDTIYYTRHKNRNGHQQRFSGWSKDVDFVATHNFGKSVDVLVKQGNKFLISNGYIFVAKLNDVIKQTVNMMVSTDGGKTFNKANLPENIHEKSYTVLDTSEGSIMLHVNHGTSSEKINTGNVYISDASGLNYALSLPNNIRTSSGECEFDRVLSLDGVYIANFLDVNNEIKDEDLRFQNFKSAIEEDIAPFETNTEKRKKQYNKGKNEDAVRTVISFNKGGEWSYLKAPKVDSRGNKYECGDNCYLHLHGITNYHQYAPFYSIENAVGIIMGTGNVGSHLRYESDEVNTFLSRDGGVTWIEAHKGPYIYEYGDYGGLIVMADDLRKTNQIVFSWNEGQSWFDFELGQFSIDVDNIVAEPNSASVEFLVYGTRNDVGVLYHLDFNALGQPLCKGLWAADSVSSDYETWSPTSGNFNDKCILGRKITYTRRKQTSECFNGKDLKRTVDKKPCECTPEDYECETGFTRKIGSYECKPNDPTLTIEGCTSSSYFYANAYRKVPGDICVNGWVPEKVPVPCPSYAPFNKAAK
modifications: bait human Fc-tagged dimer; N-glycosylation sequons mutated in Plasmodium baits
In the case of B1, the binding score in assay [1] stood at 12.8; in assay [2], 19.5; in assay [3] it was 24.4; in assay [4], 11.5; in assay [5], 16.2.
